The values below come from publication PMC3507735, “Cloning, expression and characterization of an aryl-alcohol dehydrogenase from the white-rot fungus Phanerochaete chrysosporium strain BKM-F-1767” (BMC Microbiology, 2012).

Broadly, the kcat is the maximal rate divided by the concentration of active sites. One may read the kcat/Km as the turnover number divided by the Michaelis constant.

In data set [1] the target is T1, Pc Aad1p (recombinant aryl-alcohol dehydrogenase, AAD1) (Phanerodontia chrysosporium, UniProt Q01752).
T1 sequence (Q01752 1-385): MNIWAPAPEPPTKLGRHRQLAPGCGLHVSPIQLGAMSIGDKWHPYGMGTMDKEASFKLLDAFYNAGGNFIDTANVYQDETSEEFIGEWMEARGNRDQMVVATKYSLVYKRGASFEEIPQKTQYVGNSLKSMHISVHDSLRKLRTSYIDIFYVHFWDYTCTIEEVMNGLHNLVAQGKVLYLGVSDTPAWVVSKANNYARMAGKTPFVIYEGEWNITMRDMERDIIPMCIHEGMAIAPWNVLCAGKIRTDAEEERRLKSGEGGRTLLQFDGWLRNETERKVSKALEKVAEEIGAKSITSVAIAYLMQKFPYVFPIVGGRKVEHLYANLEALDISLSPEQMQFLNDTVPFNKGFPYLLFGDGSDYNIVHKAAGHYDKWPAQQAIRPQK
Briefly: spectrophotometric NADPH oxidation at […] nm, fit to uncompetitive substrate inhibition equation. It counts as biochemical. The arrangement: full-length ORF (1155 bp) in pGS-21a; N-terminal His6-GST and C-terminal His6 tags kept; E. coli BL21 Star(DE3). The conditions noted are these: substrate inhibition constant (uncompetitive); 0.3 mM NADPH, 50 mM MES pH 6.1, 30°C.

The target in data set [2] is T1, Pc Aad1p (recombinant aryl-alcohol dehydrogenase, AAD1). Description: spectrophotometric NADPH oxidation at […] nm, non-linear fit. The following applies: read-out: KMμM; reduction; 0.3 mM NADPH, 50 mM MES pH 6.1, 30°C.
Another data set concerns COc1ccc(C=O)cc1O. Description: purified protein. The following applies: reduction, 0.3 mM NADPH, 50 mM MES pH 6.1, 30°C.
Substrate in data set [3]: O=CCc1ccccc1
Description: purified protein. The conditions noted are these: reduction, 0.3 mM NADPH, 50 mM MES pH 6.1, 30°C.

Substrate in data set [4]: COc1ccc(C=O)cc1OC
Briefly: purified protein. The following applies: reduction, 0.3 mM NADPH, 50 mM MES pH 6.1, 30°C.

Substrate in data set [5]: COc1cc(C=O)cc(OC)c1
Briefly: purified protein. The conditions noted are these: reduction, 0.3 mM NADPH, 50 mM MES pH 6.1, 30°C.

Substrate in data set [6]: O=Cc1ccc(CO)o1
Briefly: purified protein. The conditions noted are these: reduction, 0.3 mM NADPH, 50 mM MES pH 6.1, 30°C.

Substrate in data set [7]: O=Cc1ccccc1
Description: purified protein. The following applies: reduction, 0.3 mM NADPH, 50 mM MES pH 6.1, 30°C.

Substrate in data set [8]: COc1cc(C=O)ccc1O
Briefly: purified protein. The following applies: reduction, 0.3 mM NADPH, 50 mM MES pH 6.1, 30°C.

Substrate in data set [9]: NC(=O)C1=CN([C@@H]2O[C@H](COP(=O)(O)OP(=O)(O)OC[C@H]3O[C@@H](n4cnc5c(N)ncnc54)[C@H](O)[C@@H]3O)[C@@H](O)[C@H]2O)C=CC1
Briefly: purified protein. The conditions noted are these: 0.2 mM 3,4-dimethoxybenzaldehyde, 50 mM MES pH 6.1, 30°C, varied: cofactor. It counts as biochemical, Phanerodontia chrysosporium.

Substrate in data set [10]: COc1ccc(CO)cc1OC
Briefly: purified protein. The following applies: oxidation, 0.3 mM NADP+, 100 mM Glycine-KOH pH 10.3, 30°C. It counts as biochemical, Phanerodontia chrysosporium.

Substrate in data set [11]: COc1cc(CO)ccc1O
Briefly: purified protein. Format: biochemical, Phanerodontia chrysosporium. The conditions noted are these: oxidation, 0.3 mM NADP+, 100 mM Glycine-KOH pH 10.3, 30°C.

Substrate in data set [12]: NC(=O)C1=CN([C@@H]2O[C@H](COP(=O)(O)OP(=O)(O)OC[C@H]3O[C@@H](n4cnc5c(N)ncnc54)[C@H](OP(=O)(O)O)[C@@H]3O)[C@@H](O)[C@H]2O)C=CC1
Description: purified protein. The following applies: 0.2 mM 3,4-dimethoxybenzaldehyde, 50 mM MES pH 6.1, 30°C, varied: cofactor. It counts as biochemical, Phanerodontia chrysosporium.

Substrate in data set [13]: NC(=O)c1ccc[n+]([C@@H]2O[C@H](COP(=O)(O)OP(=O)(O)OC[C@H]3O[C@@H](n4cnc5c(N)ncnc54)[C@H](OP(=O)(O)O)[C@@H]3O)[C@@H](O)[C@H]2O)c1
Description: purified protein. It counts as biochemical, Phanerodontia chrysosporium. The following applies: 10 mM 3,4-dimethoxybenzyl alcohol, 100 mM Glycine-KOH pH 10.3, 30°C, varied: cofactor.

On to `COc1ccc(C=O)cc1OC` [3,4-Dimethoxybenzaldehyde], for which the KiμM in [1] was 3400 ± 1100 µM.

For `O=C/C=C/c1ccccc1` [trans-Cinnamaldehyde], in [2], the Km was 3400 ± 1300 µM. In addition, the KiμM in data set [1] stood at 3500 ± 1600 µM.

`COc1ccc(C=O)cc1` [4-Methoxybenzaldehyde]: the Km in [2] amounted to 90 ± 10 µM.

In the case of `COc1ccc(C=O)cc1O` [3-Hydroxy-4-methoxybenzaldehyde], the KiμM in data set [1] came to 2300 ± 1800 µM.

As to `COc1cc(C=O)cc(OC)c1` [3,5-Dimethoxybenzaldehyde], in [1], the KiμM came to 2100 ± 600 µM.

For the molecule `O=Cc1ccccc1` [Benzaldehyde], in [1], the KiμM stood at 81000 ± 44000 µM.

Consider “Pc Aad1p (recombinant aryl-alcohol dehydrogenase, AAD1) (Phanerodontia chrysosporium)”, for which, in the data set with COc1ccc(C=O)cc1O, the Km turned out to be 1400 ± 900 µM, the kcat is 3.83 ± 1.83 s⁻¹ and the kcat/Km was determined as 2670 M⁻¹ s⁻¹.

Regarding `COc1cc(C=O)ccc1O` [4-Hydroxy-3-methoxybenzaldehyde], the KiμM in data set [1] was found to be 5100 ± 2300 µM.

B1: Pc Aad1p (recombinant aryl-alcohol dehydrogenase, AAD1) (Phanerodontia chrysosporium) (protein)
chain: MNIWAPAPEPPTKLGRHRQLAPGCGLHVSPIQLGAMSIGDKWHPYGMGTMDKEASFKLLDAFYNAGGNFIDTANVYQDETSEEFIGEWMEARGNRDQMVVATKYSLVYKRGASFEEIPQKTQYVGNSLKSMHISVHDSLRKLRTSYIDIFYVHFWDYTCTIEEVMNGLHNLVAQGKVLYLGVSDTPAWVVSKANNYARMAGKTPFVIYEGEWNITMRDMERDIIPMCIHEGMAIAPWNVLCAGKIRTDAEEERRLKSGEGGRTLLQFDGWLRNETERKVSKALEKVAEEIGAKSITSVAIAYLMQKFPYVFPIVGGRKVEHLYANLEALDISLSPEQMQFLNDTVPFNKGFPYLLFGDGSDYNIVHKAAGHYDKWPAQQAIRPQK
notes: full-length ORF (1155 bp) in pGS-21a; N-terminal His6-GST and C-terminal His6 tags kept; E. coli BL21 Star(DE3)
For the molecule B1, the Km in the data set “purified protein [3]” was determined as 530 ± 90 µM; in the data set “purified protein [4]”, 12 ± 2 µM; in “purified protein [5]”, 22 ± 4 µM; in “purified protein [6]”, 270 ± 40 µM; in “purified protein [7]”, 1700 ± 600 µM; in “purified protein [8]” it was 1400 ± 600 µM. The Km in the data set “purified protein [9]” was 220 ± 130 µM; in “purified protein [10]” it was 370 ± 50 µM; in the data set “purified protein [11]”, 25000 ± 7000 µM; in the data set “purified protein [12]” it was 39 ± 5 µM; in “purified protein [13]”, 38 ± 7 µM. For the same molecule, the kcat in “purified protein [3]” stood at 11.2 ± 0.417 s⁻¹; in “purified protein [4]” it was 8.83 ± 0.417 s⁻¹; in “purified protein [5]” it was 9.83 ± 0.5 s⁻¹; in the data set “purified protein [6]” it was 2.93 ± 0.1 s⁻¹; in “purified protein [7]” it was 7.17 ± 0.833 s⁻¹; in the data set “purified protein [8]”, 3.33 ± 0.833 s⁻¹. The kcat in the data set “purified protein [9]” worked out at 2 ± 0.667 s⁻¹; in the data set “purified protein [10]”, 2.55 ± 0.1 s⁻¹; in “purified protein [11]” it was 4.33 ± 1 s⁻¹; in the data set “purified protein [12]” it was 11.3 ± 0.5 s⁻¹; in the data set “purified protein [13]”, 2.57 ± 0.12 s⁻¹. For the same molecule, the kcat/Km amounted to 21700 M⁻¹ s⁻¹ in the data set “purified protein [3]”; 733000 M⁻¹ s⁻¹ in the data set “purified protein [4]”; 450000 M⁻¹ s⁻¹ in the data set “purified protein [5]”; 10800 M⁻¹ s⁻¹ in “purified protein [6]”; 5000 M⁻¹ s⁻¹ in “purified protein [7]”; 2330 M⁻¹ s⁻¹ in the data set “purified protein [8]”. Besides, the kcat/Km in “purified protein [9]” was 10000 M⁻¹ s⁻¹; in the data set “purified protein [10]”, 6830 M⁻¹ s⁻¹; in the data set “purified protein [11]”, 167 M⁻¹ s⁻¹; in the data set “purified protein [12]” it was 283000 M⁻¹ s⁻¹; in the data set “purified protein [13]”, 68300 M⁻¹ s⁻¹.
